Residue numbers refer to the chain shown, from its start. Numbers in names are those of the source. Blank lines part the entries; values can stand above or below the binder they belong to.
Molecular target: T1, TNFR1 (Homo sapiens, UniProt P19438)
T1 chain: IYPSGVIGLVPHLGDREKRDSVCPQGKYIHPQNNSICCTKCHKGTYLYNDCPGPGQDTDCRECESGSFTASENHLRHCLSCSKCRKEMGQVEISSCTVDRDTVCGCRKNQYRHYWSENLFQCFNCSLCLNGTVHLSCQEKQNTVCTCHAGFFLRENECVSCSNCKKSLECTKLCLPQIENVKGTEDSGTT
Assay: yeast display SC50

apparent Kd (screen): 22.2 nM
B1: R66I (designed binder)
chain: SMEEEVEKAAKEYEKKKKEAIEKHLEKLKAKDKEAAERFLKELEEAAKEYAKDEAKTMSEEEAKRIAKKYKEKVLLSELSEEEQKEIKEAEEKLVRTILKYVEEAAK

apparent Kd (screen): 2.73 nM
B2: T57C (designed binder)
chain: B1 chain with T57C, I66R

apparent Kd (screen): 10.4 nM
B3: A63F (designed binder)
chain: B1 chain with A63F, I66R

apparent Kd (screen): 0.49 nM
B4: V6W (designed binder)
chain: B1 chain with V6W, I66R

apparent Kd (screen): 12.5 nM
B5: H24P (designed binder)
chain: B1 chain with H24P, I66R

apparent Kd (screen): 0.869 nM
B6: K29W (designed binder)
chain: B1 chain with K29W, I66R

apparent Kd (screen): 0.956 nM
B7: L28D (designed binder)
chain: B1 chain with L28D, I66R

apparent Kd (screen): 9.41 nM
B8: E12P (designed binder)
chain: B1 chain with E12P, I66R

apparent Kd (screen): 0.446 nM
B9: E19D (designed binder)
chain: B1 chain with E19D, I66R

apparent Kd (screen): 0.49 nM
B10: L94A (designed binder)
chain: B1 chain with I66R, L94A

apparent Kd (screen): 0.446 nM
B11: T57Q (designed binder)
chain: B1 chain with T57Q, I66R

apparent Kd (screen): 0.593 nM
B12: K27C (designed binder)
chain: B1 chain with K27C, I66R

apparent Kd (screen): 0.446 nM
B13: L94V (designed binder)
chain: B1 chain with I66R, L94V

apparent Kd (screen): 3 nM
B14: E49Q (designed binder)
chain: B1 chain with E49Q, I66R

apparent Kd (screen): 1.69 nM
B15: L25R (designed binder)
chain: B1 chain with L25R, I66R

apparent Kd (screen): 1.05 nM
B16: K33D (designed binder)
chain: B1 chain with K33D, I66R

apparent Kd (screen): 12.5 nM
B17: E42M (designed binder)
chain: B1 chain with E42M, I66R

apparent Kd (screen): 2.73 nM
B18: S59C (designed binder)
chain: B1 chain with S59C, I66R

apparent Kd (screen): 2.73 nM
B19: A105Y (designed binder)
chain: B1 chain with I66R, A105Y

apparent Kd (screen): 3 nM
B20: E44H (designed binder)
chain: B1 chain with E44H, I66R

apparent Kd (screen): 5.84 nM
B21: K107W (designed binder)
chain: B1 chain with I66R, K107W

apparent Kd (screen): 0.653 nM
B22: E4M (designed binder)
chain: B1 chain with E4M, I66R

apparent Kd (screen): 0.79 nM
B23: K18W (designed binder)
chain: B1 chain with K18W, I66R

apparent Kd (screen): 0.446 nM
B24: K48S (designed binder)
chain: B1 chain with K48S, I66R

Source: publication PMC12416549 (2024)
